Measurements taken from patent US20170212130A1 (ROCKEFELLER UNIVERSITY, published 2017).

How the values were obtained:
GFP-His6 (eGFP) [1] = molecular target: T1, GFP-His6 (eGFP) (Aequorea victoria, UniProt P42212 2-238 = GFP); assay: SPR, GFP immobilized, Langmuir fit; no unit printed [continued]
T1 construct: SPR and bead assays speak only of recombinant GFP or eGFP; also called recombinant GFP; A. victoria (Av) GFP

DsRed = molecular target: T2, DsRed (Discosoma sp., UniProt Q9U6Y8 1-225); assay: bead binding: nanobody-Dynabeads + fluorescent protein, eluate on SDS-PAGE
T2 construct: Recombinant fluorescent protein; construct not described; also called standard DsRed; DsRed from Discosoma (Ds)

GFP-His6 (eGFP) [2] = molecular target: T1, GFP-His6 (eGFP); assay: SPR, GFP immobilized
GFP-His6 (eGFP) [3] = molecular target: T1, GFP-His6 (eGFP); assay: SPR, GFP immobilized, Langmuir fit; unit inferred
GFP-His6 (eGFP) [4] = molecular target: T1, GFP-His6 (eGFP); assay: SPR, GFP immobilized, Langmuir fit; no unit printed [continued]; remark: listed apart in the source
GFP-His6 (eGFP) [5] = molecular target: T1, GFP-His6 (eGFP); assay: bead binding assay (footnote 1)
mCherry [6] = molecular target: T3, mCherry (Discosoma); assay: SPR, mCherry immobilized, Langmuir fit; unit inferred
T3 construct: Immunogen is mCherry-His6; SPR says recombinant mCherry; also called recombinant mCherry-His6; Discosoma mCherry

mCherry [7] = molecular target: T3, mCherry; assay: SPR, mCherry immobilized
mCherry [8] = molecular target: T3, mCherry; assay: label under gel lane; legend: in vitro Kd for mCherry by SPR
GFP-His6 (eGFP) [9] = molecular target: T1, GFP-His6 (eGFP); assay: bead binding: nanobody-Dynabeads + fluorescent protein, eluate on SDS-PAGE
GFP-His6 (eGFP) [10] = molecular target: T1, GFP-His6 (eGFP); assay: label under gel lane; legend: in vitro Kd for GFP by SPR

T2 sequence (Q9U6Y8 whole entry): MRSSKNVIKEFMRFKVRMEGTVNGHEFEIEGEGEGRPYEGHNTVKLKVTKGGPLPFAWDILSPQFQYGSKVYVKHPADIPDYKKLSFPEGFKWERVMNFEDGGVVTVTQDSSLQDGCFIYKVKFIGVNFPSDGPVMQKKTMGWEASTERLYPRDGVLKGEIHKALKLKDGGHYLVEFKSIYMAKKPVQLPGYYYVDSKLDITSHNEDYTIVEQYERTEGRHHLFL

Row | Binder | binding result (DsRed) | Kd (GFP-His6 (eGFP) [2]) [nM] | Kd (GFP-His6 (eGFP) [3]) [nM] | also measured
1 | LaG-30 (VHH) VHH: QVQLVESGGGLVQAGGSLRLSCAASGRTFSTSAMGWFRQAPGREREFVAAITWTVGNTIYGDSMKGRFTISRDRTKNTVDLQMDSLKPEDTAVYYCTARSRGFVLSDLRSVDSFDYKGQGTQVTVS | no binding | 0.5 |  | Kd (GFP-His6 (eGFP) [1]): 0.5 nM
2 | LaG-3 (VHH) VHH: QVQLVESGGGLVQAGGSLRVSCAASGRTYSDYAMGWFRQAPGKERDFVAGISGSGGDTYYADSVKGRFTISRDNAKNTMYLQMNSLKPEDTAVYFCAARTGTVLFTSRVDYRYWGQGTQVTV | no binding | 25 | 25 | 
3 | LaG-29 (VHH) VHH: QVQLVESGGGLVQAGAALRLSCAASGGTFSFYNMGWFRQAPGKEREFVVSISRSGGGTAYADSVKGRFTISRDNAKNTAYLQMNSLKPEDTAVYYCAAGLRDWGREGEPHYWGQGTQVTVS |  | 110 |  | Kd (GFP-His6 (eGFP) [1]): 110 nM
4 | LaG-16 (VHH, Conjugated to Alexa Fluor 568 (succinimidyl ester, on amines) in the microscopy result. The letters are unchanged., Conjugated to Alexa Fluor 568 for microscopy) VHH: QVQLVESGGRLVQAGDSLRLSCAASGRTFSTSAMAWFRQAPGREREFVAAITWTVGNTILGDSVKGRFTISRDRAKNTVDLQMDNLEPEDTAVYYCSARSRGYVLSVLRSVDSYDYWGQGTQVTVS | no binding | 0.7 | 0.69 | 
5 | LaG16-LaG2 (3xFLAG) (other, Member of the group m24; also called LaG16-LaG2 3xFLAG Dimer) single-chain fusion of two VHH (part 1 of 2): MAQVQLVESGGRLVQAGDSLRLSCAASGRTFSTSAMAWFRQAPGREREFVAAITWTVGNTILGDSVKGRFTISRDRAKNTVDLQMDNLEPEDTAVYYCSARSRGYVLSVLRSVDSYDYWGQGTQVTVS single-chain fusion of two VHH (part 2 of 2): MAQVQLVESGGGLVQAGGSLRLSCAASGRTFSNYAMGWFRQAPGKEREFVAAISWTGVSTYYADSVKGRFTISRDNDKNTVYVQMNSLIPEDTAIYYCAAVRARSFSDTYSRVNEYDYWGQGTQVTV |  | 0.268 |  | Kd (GFP-His6 (eGFP) [4]): 0.27 nM
6 | LaG-21 (VHH) VHH: QVQLVESGGGLVQAGGSLRLSCAASGPTGAMAWFRQAPGMEREFVGGISGSETDTYYADFVKGRLTVDRDNVKNTVDLQMNSLKPEDTAVYYCAARRRVTLFTSRADYDFWGQGTQVTVS | no binding | 7 |  | 
7 | LaG-14 (VHH) VHH: QVQLVESGGGLVQAGGSLRLSCAASGRTYSISAMGWFRQAPGKEREFVAGISRSGGTTYYADPVKGRFTISRDNAKNTVYLQMNSLKPEDTAVYYCAARARGWTTFPAREIEYDYWGQGTQVTV | no binding | 1.9 | 1.9 | 
8 | LaG-19 (VHH) VHH: QVQLVESGGGLVQAGGSLRLSCAASGPTGAMAWFRQAPGKEREFVGGISRSGTDTYYVDSVKGRFTIDRDNAKNTVYLQMNSLKPEDTAVYYCAARRSQILFTSRTDYEFWGQGTQVTVS | no binding |  |  | Kd (GFP-His6 (eGFP) [5]): 24.6 nM
9 | LaM-3 (VHH) VHH: QVQLVQSGGGLVQAGGSLRLSCAASGRTFSDIAVGWFRQTPGKEREFVAAISWSGLIINYGDSVEDRFTISRDNAKSAVYLQMNSLKPEDTAVYYCAARIGMNYYYAREIEYPYWGQGTQVTVS |  |  |  | Kd (mCherry [6]): 1.9 nM; Kd (mCherry [7]): 1.9 nM; Kd (mCherry [8]): 1.9 nM; binding result (GFP-His6 (eGFP) [9]): no binding
10 | LaG-17 (VHH) VHH: DVQLVESGGGLVQAGGSLRLSCAASGRTISMAAMSWFRQAPGKEREFVAGISRSAGSAVHADSVKGRFTISRDNTKNTLYLQMNSLKAEDTAVYYCAVRTSGFFGSIPRTGTAFDYWGQGTQVTVS | no binding |  | 48 | 
11 | LaG-42 (VHH) VHH: DVQLVESGGGLVQAGDSLRLSCAASGPTGAMAWFHQGLGKEREFVGGISPSGDNIYYADSVKGRFTIDRDNAKNTVSLQMNSLKPEDMGVYYCAARRRVTLFTSRTDYEFWGRGTQVTVS |  | 600 |  | 
12 | LaG-6 (VHH) VHH: QVQLVESGGGLVQAGGSLRLSCAASGRTFSTSAMAWFRQAPGKEREFAAGITWISSSTYYTDSVKGRFTISRDNAKNTVYLQMNSLKPEDTAVYYCAAKSEGYFGFPRVENEYPYWGQGTQVTV |  | 310 | 310 | 
13 | LaG-11 (VHH) VHH: DVQLVESGGRSVRAGDSLRLSCLASGGTFSLYAMGWFRQAPGKEREFVAAVTWSGGSTYYTDSVKGRFSISRDNAKNTVYLQMNSLKPEDTAVYYCAVRTSGFFGSIPVTERAFDYWGQGTQVTVS |  |  |  | Kd (GFP-His6 (eGFP) [10]): 22900 nM; Kd (GFP-His6 (eGFP) [5]): 22900 nM
14 | LaG-35 (VHH) VHH: DVQLVESGGGLVQAGGSLRLSCTVSGRTFSNYAMGWFRQAPGKEREFVAGISWTGGHTLYTDSVKGRFTISRDNAKNTVYLQMNSLKPEDTALYYCAADRAADFFAQRDEYDYWGQGTQVTVS |  |  |  | Kd (GFP-His6 (eGFP) [10]): 24 nM; Kd (GFP-His6 (eGFP) [5]): 23.5 nM
15 | LaG41-LaG2 (G4S) (bispecific antibody, Member of the group m24; also called LaG41-LaG2 G4S Dimer) single-chain fusion of two VHH: MADVQLVESGGGLVQAGGSLRLSCAASGPTGAMAWFRQAPGKEREFVGGISGSETDTYYVDSVKGRFTVDRDNVKNTVYLQMNSLKPEDTAVYYCAARRRITLFTSRTDYDFWGRGTQVTVGGGGSGGGGSGGGGSMAQVQLVESGGGLVQAGGSLRLSCAASGRTFSNYAMGWFRQAPGKEREFVAAISWTGVSTYYADSVKGRFTISRDNDKNTVYVQMNSLIPEDTAIYYCAAVRARSFSDTYSRVNEYDYWGQGTQVTV |  | 0.15 |  | Kd (GFP-His6 (eGFP) [4]): 0.15 nM
16 | LaG-10 (VHH) VHH: QVQLVESGGGLVQAGDSLQLSCAFSGGTFSTYAMGWFRQAPGKEREFVGGISRSGATTNYEDSVKGRFTISKDNTKNTVYLQLNSLKPEDTAVYYCAARNNILPVTTIDKYEYWGQGTQVTV |  | 97 | 97 | 
17 | LaG-43 (VHH) VHH: DVQLVESGGGLVQPGGSLRLSCEASGGAFSTVAMGWFRQAPGKEREFVGAITWTAGSTYYADSAKGRFTISRDNAKNTVHLQMNSLKPEDTAVYYCAQRVRGFFGPLRTTPSWYEYWGQGTQVTVS |  | 11 |  | Kd (GFP-His6 (eGFP) [4]): 11 nM; Kd (GFP-His6 (eGFP) [10]): 13 nM
18 | LaG-37 (VHH) VHH: QVQFVESGGGTVQDGDFLRLSCTASGDTFSNYHAGWFRQPPGREREFVAAISWTGEGTLYADSVKGQFTISRDNAKNAMYLQMNRLKPEDTAVYYCAAARSVGFTWRSSKSNDYAYWGQGTQVTV |  | 24 |  | Kd (GFP-His6 (eGFP) [1]): 24 nM; Kd (GFP-His6 (eGFP) [10]): 25 nM
19 | LaG-27 (VHH) VHH: DVQLVESGGGLVQAGGSLRLSCTASGLTISTYNIGWFRQAPGKEREFVGIIIRNGDTTYYADSVKGRFTISRDNAKNTVYLQMNSVKPADAAVYSCGATVRAGAAAEQYNSYIFRGQGTQVTV | no binding | 9.5 |  | Kd (GFP-His6 (eGFP) [1]): 9.5 nM
20 | LaG-26 (VHH) VHH: QVQLVESGGGLVQAGASMRLSCAASGITFSLYHWVWFRQAAGREHEFVAGIIRSGGETLSADSVKDRFIISRDDAKNTLYLQMNMLQPEDTATYYCAATHRADWYSSAFREYIFRGQGTQVTVS | no binding | 2.6 |  | Kd (GFP-His6 (eGFP) [1]): 2.6 nM
